Test results as given in patent US20250066499A1 (SUNSHINE GUOJIAN PHARMACEUTICAL SHANGHAI, published 2025).

B1: 48A11-HuV33 (antibody, human IgG4, V domains shown)
VH: QVQLVQSGAEVKKPGASVKVSCKASGYTFTSYWMHWVRQAPGQGLEWIGEINPSIGRTNYNEKFKSRVTLTRDTSTSTAYMELSSLRSEDTAVYYCARRVYGTMDYWGQGTLVTVSS
VL: DIQMTQSPSSLSASVGDRVTITCKASQDINSYLSWFQQKPGKSPKLLIYRANIWVDGVPSRFSGSGSGQDYTFTISSLQPEDIATYYCLQYDELYTFGQGTKVEIK
notes: Humanized
B2: 56B10-HuV31 (antibody, human IgG4, V domains shown)
VH: QVQLQQSGAEVKKPGASVKVSCKASGYTFTRYYIYWVRQRPGQGLEWIGWIYPGNFNTKYNEKFKGRATLTADTSASTAYMELSSLTSEDTAVYYCARDVYDYAGFAYWGQGTLVTVSS
VL: DIQLTQSPSFLSASVGDRVTITCKASQGVATAVAWYQQKPGQSPKLLIYWASTRHTGVPDRFSGSGSGTEFTLTISSLQPEDFATYYCQQYSSYPWTFGQGTKVEIK
notes: Humanized

How the values were obtained:
[1] = target: T1, CD73 protein on the surface of tumor cells (human, UniProt P21589 27-549); assay: flow cytometry on H292 cells
T1 construct: whole, on cells; also called CD73 on H1975 cells; CD73 on MDA-MB-231 cells
T1 sequence (looked up): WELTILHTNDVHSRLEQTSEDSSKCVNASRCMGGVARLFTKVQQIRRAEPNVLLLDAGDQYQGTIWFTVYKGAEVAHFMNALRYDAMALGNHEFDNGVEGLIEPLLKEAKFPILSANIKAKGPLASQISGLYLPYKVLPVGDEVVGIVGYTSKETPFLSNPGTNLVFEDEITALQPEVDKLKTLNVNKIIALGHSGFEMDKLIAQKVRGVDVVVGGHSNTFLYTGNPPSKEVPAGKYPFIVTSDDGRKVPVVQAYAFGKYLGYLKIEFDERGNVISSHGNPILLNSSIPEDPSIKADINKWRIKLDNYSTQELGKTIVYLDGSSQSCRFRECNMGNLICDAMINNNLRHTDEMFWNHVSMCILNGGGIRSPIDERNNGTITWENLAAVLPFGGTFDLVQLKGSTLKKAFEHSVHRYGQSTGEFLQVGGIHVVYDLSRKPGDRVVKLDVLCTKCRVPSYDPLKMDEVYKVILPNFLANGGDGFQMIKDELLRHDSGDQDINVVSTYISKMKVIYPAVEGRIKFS
Experimental: (§1) MDA-MB-231 cells (triple-negative breast cancer), H292 cells (human lung cancer cells), and A375 cells (human malignant melanoma cells), all in their logarithmic growth phase, were collected respectively. The cells were washed once with RPMI-1640 basic medium and then adjusted to a cell concentration of 2.0×10⁶ cells/mL in RPMI-1640 basic medium containing 1% BSA (antibody diluent). The antibodies to be tested were diluted in a 3-fold gradient using the antibody diluent, and 100 μL of each concentration of the test antibodies was mixed with 100 μL of cells in a 96-well cell culture plate and incubated at 4° C. for 1 hour (the maximum working concentration of the test antibodies was 500 nM, with 1×10⁵ target cells per well). The cells were washed twice with PBS to remove unbound test antibodies. Then, the cells were mixed with 200 μL of 5 μg/mL FITC-labeled goat anti-human IgG-Fc secondary antibody and incubated at 4° C. for 30 minutes. The cells were washed twice again with PBS to remove unbound secondary antibodies, and finally, the cells were resuspended in 200 μL of PBS. The binding affinity of the test antibodies to the cells was determined using a flow cytometer.

[2] = target: T2, human CD73-His protein (human, UniProt P21589 27-549); assay: SPR Biacore 8K, antibody captured on Protein A/G, CD73-his in flow, 1:1 model
T2 construct: Expressed in HEK-293F with a signal peptide that is not specified; In the ELISAs it was biotinylated with EZ-Link NHS-Biotin (CD73-biotin) and captured on streptavidin; in SPR and the enzyme assay it was used as CD73-His; also called CD73-his antigen; CD73-biotin
T2 sequence: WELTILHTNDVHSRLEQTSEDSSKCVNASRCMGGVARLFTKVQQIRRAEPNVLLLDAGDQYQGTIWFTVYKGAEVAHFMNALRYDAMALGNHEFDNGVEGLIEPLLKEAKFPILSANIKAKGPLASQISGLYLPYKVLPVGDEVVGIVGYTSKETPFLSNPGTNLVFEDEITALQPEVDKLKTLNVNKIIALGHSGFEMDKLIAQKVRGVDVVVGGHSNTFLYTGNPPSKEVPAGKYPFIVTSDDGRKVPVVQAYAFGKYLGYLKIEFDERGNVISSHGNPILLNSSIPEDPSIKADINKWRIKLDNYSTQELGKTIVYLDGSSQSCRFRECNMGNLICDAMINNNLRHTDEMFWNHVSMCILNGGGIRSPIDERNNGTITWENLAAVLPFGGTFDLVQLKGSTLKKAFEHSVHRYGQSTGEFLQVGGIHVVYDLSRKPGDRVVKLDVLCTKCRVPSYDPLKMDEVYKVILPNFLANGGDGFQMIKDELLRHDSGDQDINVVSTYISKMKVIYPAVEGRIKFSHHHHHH
Experimental: Antibodies to be tested were captured using a chip covalently coupled with Protein A/G, with the following operational parameters: antibody concentration of 2 μg/mL, contact time of 75 seconds, flow rate of 10 μL/min, and regeneration contact time of 30 seconds. The CD73-his antigen was diluted in HBS-EP pH 7.4 buffer, with the highest concentration being 100 nM, and diluted in a 2-fold gradient down to 0.78 nM. Duplicate wells and a 0 concentration point were set up. 6M guanidine hydrochloride solution was used as the regeneration buffer. Using the Biacore 8K, the samples were injected with the following parameters: binding time of 180 seconds, dissociation time of 900 seconds, flow rate of 30 μL/min, and regeneration contact time of 30 seconds. After the procedure was completed, the Biacore 8K Evaluation Software was used to analyze the data according to the “1:1 binding kinetics model,” yielding the binding kinetics parameters of each antibody to CD73.

[3] = target: T2, human CD73-His protein; assay: cell-based or functional assay
[4] = target: T3, cynomolgus monkey CD73 protein (cynomolgus monkey, UniProt A0A2K5V5U7 27-547); assay: SPR Biacore 8K, antibody captured on Protein A/G, antigen in flow
T3 construct: Bought protein; also called CD73-cynomolgus monkey
T3 sequence: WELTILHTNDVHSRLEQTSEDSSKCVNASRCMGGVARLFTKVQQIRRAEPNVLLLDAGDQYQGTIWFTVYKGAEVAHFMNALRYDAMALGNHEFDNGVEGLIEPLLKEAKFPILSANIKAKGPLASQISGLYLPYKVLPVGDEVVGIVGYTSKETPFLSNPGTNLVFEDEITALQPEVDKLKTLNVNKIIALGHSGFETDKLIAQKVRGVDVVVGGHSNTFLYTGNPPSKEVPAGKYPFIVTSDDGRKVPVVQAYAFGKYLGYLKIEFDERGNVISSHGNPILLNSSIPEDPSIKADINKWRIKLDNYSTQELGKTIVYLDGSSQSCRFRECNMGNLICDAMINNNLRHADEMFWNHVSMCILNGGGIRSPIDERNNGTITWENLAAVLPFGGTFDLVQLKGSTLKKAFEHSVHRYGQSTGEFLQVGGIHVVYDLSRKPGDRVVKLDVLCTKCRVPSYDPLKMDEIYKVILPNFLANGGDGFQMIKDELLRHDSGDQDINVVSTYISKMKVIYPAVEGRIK

[5] = target: T1, CD73 protein on the surface of tumor …; assay: flow cytometry on A375 cells
Experimental: as §1

Binder	EC50 [1]	Kd [2]	koff [2]	kon [2]	IC50 (nM), inhibition of enzyme activity of soluble CD73-His (AMP/ATP, Cell Titer-Glo) [3]	Kd [4]	koff [4]	kon [4]	EC50 [5]
B1	2.31 nM	2.26 nM	0.000381 s⁻¹	168000 M⁻¹ s⁻¹	4.27 nM	12.1 nM	0.000883 s⁻¹	72800 M⁻¹ s⁻¹	0.789 nM
B2	2.55 nM	1.89 nM	0.000376 s⁻¹	199000 M⁻¹ s⁻¹	3.66 nM	7.13 nM	0.000712 s⁻¹	99900 M⁻¹ s⁻¹	1.27 nM
